Laboratory results as given in the supplement of paper PMC9876800.

Tested on: peptide library, one residue held at a place counted from the S/T acceptor
Experiment: relative phosphorylation of the sub-library (ratio to the mean residue at this position); higher = residue favoured
Outline: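 Relative sub-library phosphorylation is a ratio to the mean residue at the same position. Purified recombinant kinases were incubated under kinase-specific conditions with biotinylated degenerate peptide sub-libraries, each fixing one residue at one position around a central Ser/Thr, using 50 μM peptide and 50 μM ATP spiked with γ-32P-ATP for 90 min. Spots captured on streptavidin membranes were phosphorimaged and quantified by densitometry.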

Chain of ERN1, construct: aa468-end, human (O75460 468-977, looked up): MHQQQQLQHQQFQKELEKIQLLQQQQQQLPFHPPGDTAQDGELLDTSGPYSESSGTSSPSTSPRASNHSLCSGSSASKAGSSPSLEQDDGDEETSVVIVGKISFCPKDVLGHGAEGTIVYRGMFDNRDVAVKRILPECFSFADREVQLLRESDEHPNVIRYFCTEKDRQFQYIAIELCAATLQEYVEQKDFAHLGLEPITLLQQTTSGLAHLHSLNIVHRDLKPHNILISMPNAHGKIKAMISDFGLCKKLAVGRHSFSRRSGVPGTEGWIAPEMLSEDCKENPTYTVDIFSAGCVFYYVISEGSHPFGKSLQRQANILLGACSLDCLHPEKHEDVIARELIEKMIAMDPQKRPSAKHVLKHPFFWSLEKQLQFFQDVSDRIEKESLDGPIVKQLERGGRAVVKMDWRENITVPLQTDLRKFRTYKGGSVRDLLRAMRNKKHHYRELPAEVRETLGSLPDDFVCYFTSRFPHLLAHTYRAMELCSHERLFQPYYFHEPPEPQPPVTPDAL
Chain of MAP3K7, construct: aa1-303, human (O43318 1-303, looked up): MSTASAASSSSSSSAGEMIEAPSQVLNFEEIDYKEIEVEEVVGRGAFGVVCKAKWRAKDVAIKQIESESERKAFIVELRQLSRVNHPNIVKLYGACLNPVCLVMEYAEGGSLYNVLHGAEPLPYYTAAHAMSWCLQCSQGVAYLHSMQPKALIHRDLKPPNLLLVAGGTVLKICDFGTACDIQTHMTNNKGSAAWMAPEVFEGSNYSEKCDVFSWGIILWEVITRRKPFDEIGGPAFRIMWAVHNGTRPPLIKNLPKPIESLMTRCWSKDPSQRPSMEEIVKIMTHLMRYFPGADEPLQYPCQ
Chain of GRK1, construct: Full length, human (Q15835 whole entry, looked up): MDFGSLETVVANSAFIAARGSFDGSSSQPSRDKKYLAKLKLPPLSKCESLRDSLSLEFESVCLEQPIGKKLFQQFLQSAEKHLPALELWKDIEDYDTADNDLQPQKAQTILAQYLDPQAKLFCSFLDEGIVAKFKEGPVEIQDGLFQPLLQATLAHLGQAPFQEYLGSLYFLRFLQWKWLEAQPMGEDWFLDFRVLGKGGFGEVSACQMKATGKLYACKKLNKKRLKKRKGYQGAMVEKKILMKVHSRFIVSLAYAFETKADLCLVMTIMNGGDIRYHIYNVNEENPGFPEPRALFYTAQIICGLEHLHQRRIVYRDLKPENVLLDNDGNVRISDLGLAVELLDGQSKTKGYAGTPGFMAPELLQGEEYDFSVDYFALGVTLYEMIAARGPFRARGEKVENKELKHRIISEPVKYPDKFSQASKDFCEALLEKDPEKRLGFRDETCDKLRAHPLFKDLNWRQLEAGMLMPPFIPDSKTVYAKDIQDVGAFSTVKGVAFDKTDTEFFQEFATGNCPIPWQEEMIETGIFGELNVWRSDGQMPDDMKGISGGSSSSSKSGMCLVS

ERN1, construct: aa468-end, human (from UniProt O75460)
relative phosphorylation
Details	at +1	at +2	at +3	at +4	at -1	at -2	at -3	at -4	at -5
A fixed	0.993	0.597	0.656	0.755	1.28	1.07	1.06	1.11	1.07
D fixed	0.229	0.173	0.375	0.276	0.33	0.672	0.705	0.813	0.747
E fixed	0.263	0.158	0.201	0.26	0.373	0.869	0.801	0.831	0.781
F fixed	0.67	0.858	1.32	1.07	0.966	1.13	0.781	0.708	0.873
G fixed	1.15	0.662	0.791	0.892	0.804	1.26	1.59	1.29	1.25
H fixed	0.835	1.9	1.31	1.03	1.75	1.03	1.03	0.948	1.07
I fixed	0.632	1.08	0.76	0.849	0.562	0.794	0.906	0.949	1.04
K fixed	2.21	1.7	1.45	2.02	1.89	1.14	1.2	1.48	1.49
L fixed	0.643	1.21	0.973	0.766	0.658	0.857	0.854	0.87	0.97
M fixed	1.03	1.14	0.85	0.929	0.937	0.9	0.818	0.937	0.871
N fixed	1.14	0.559	0.793	0.795	0.844	0.933	0.926	1.03	0.956
P fixed	0.258	0.347	0.525	0.851	0.833	1.43	1.08	0.981	0.909
Q fixed	1.2	0.65	0.683	0.912	0.986	0.958	0.833	0.878	0.822
R fixed	3.41	2.73	3.08	2.09	1.86	1.29	1.77	1.45	1.28
V fixed	0.78	1.19	0.726	0.85	1.02	0.982	0.938	0.911	0.971
W fixed	0.775	0.963	1.19	1.45	0.74	0.724	0.813	0.924	0.926
Y fixed	0.778	1.08	1.31	1.2	1.16	0.951	0.906	0.888	0.963
pThr fixed	0.381	0.299	0.315	0.372	0.448	0.996	1.2	0.999	0.991
pTyr fixed	0.3	0.61	0.58	0.345	0.571	1.16	1	0.776	0.916

GRK1, construct: Full length, human (from UniProt Q15835)
relative phosphorylation
Details	at +1	at +2	at +3	at +4	at -1	at -2	at -3	at -4	at -5
A fixed	0.624	1.06	0.886	1.02	0.737	0.553	0.76	1.15	1.16
D fixed	0.767	1.81	2.19	2.5	1.31	0.963	1.16	1.43	2.29
E fixed	2.89	1.47	2.19	2.42	1.39	1.28	1.19	1.75	1.74
F fixed	0.711	0.778	0.638	0.645	0.641	2.3	0.881	0.585	0.659
G fixed	0.605	0.939	1.68	1.06	0.652	0.519	0.912	1.29	2.07
H fixed	0.592	0.984	0.958	0.932	0.962	0.701	0.746	0.843	0.894
I fixed	1.47	0.921	0.682	0.734	0.654	0.86	0.841	0.627	0.556
K fixed	0.65	0.587	0.793	0.622	1.56	0.619	0.706	0.673	0.682
L fixed	1.23	0.823	0.662	0.653	0.852	1.02	0.583	0.568	0.491
M fixed	0.973	0.961	0.721	0.662	0.723	0.708	0.671	0.645	0.533
N fixed	0.621	1.3	0.861	0.861	1.23	0.691	1.07	0.933	0.983
P fixed	0.522	0.592	0.823	1.18	2.04	1.11	2.74	2.68	1.31
Q fixed	1.11	1.06	0.956	0.82	0.932	0.65	0.966	0.897	0.708
R fixed	0.605	0.682	0.633	0.544	0.993	1.02	1.07	0.813	0.678
V fixed	2.36	1.03	0.703	0.8	0.811	0.66	0.956	0.777	0.638
W fixed	0.575	0.917	0.874	0.841	0.566	0.74	0.62	0.673	0.799
Y fixed	0.701	1.1	0.754	0.707	0.953	2.61	1.13	0.662	0.81
pThr fixed	2.35	0.972	1.21	3.6	3.08	4.99	3.2	1.84	1.43
pTyr fixed	3.09	2.14	1.38	2.98	1.92	1.75	1.76	1.46	1.13

MAP2K1, construct: Full length, human (from UniProt Q02750)
relative phosphorylation
Details	at +1	at +2	at +3	at +4	at -1	at -2	at -3	at -4	at -5
A fixed	0.7	0.969	0.94	0.939	1.03	0.942	1.02	0.999	1.03
D fixed	1.55	0.835	1.02	1	0.876	0.955	1.02	1.13	1.08
E fixed	0.866	0.696	0.898	0.911	0.722	0.931	1	1.2	0.95
F fixed	1.18	0.746	0.992	0.92	0.933	1.72	1.04	1.04	1.81
G fixed	0.753	0.712	1.11	1.07	1.35	0.808	0.725	0.902	0.816
H fixed	0.877	3.48	1.29	0.998	1.02	2.03	1.07	1.11	0.992
I fixed	1.56	0.839	0.852	0.976	0.77	0.695	0.998	0.961	0.94
K fixed	0.629	0.84	0.923	0.885	1.07	0.768	1.09	0.861	0.925
L fixed	1.18	0.718	0.947	1.05	1.32	0.787	1.02	0.891	0.943
M fixed	1.42	0.924	0.909	0.949	1.14	1.02	1.02	1.06	0.909
N fixed	0.738	0.738	0.854	0.83	0.959	0.994	0.781	0.974	0.882
P fixed	0.71	0.775	0.969	1.04	0.768	0.615	0.707	0.806	0.935
Q fixed	0.743	0.79	0.854	0.916	0.967	0.834	0.92	0.896	0.886
R fixed	0.616	0.85	0.916	0.875	1.05	0.955	1.36	0.922	0.907
V fixed	1.21	0.913	0.861	0.895	0.848	0.67	0.94	1.06	0.978
W fixed	1.13	0.87	1.37	1.5	1.02	1.13	1.22	1.11	1.01
Y fixed	1.13	1.31	1.29	1.25	1.17	1.14	1.06	1.09	1.01
pThr fixed	1.45	1.08	0.988	1.02	0.87	0.824	1.7	1.14	0.922
pTyr fixed	1.11	0.882	1.11	0.958	0.875	0.763	0.869	1.04	0.873

MAP3K7, construct: aa1-303, human (from UniProt O43318)
relative phosphorylation
Details	at +1	at +2	at +3	at +4	at -1	at -2	at -3	at -4	at -5
A fixed	0.455	0.709	0.902	0.855	0.708	0.979	1.18	0.95	1.05
D fixed	0.391	1.03	0.996	0.885	1.18	0.533	0.857	1.69	1.56
E fixed	0.668	0.547	0.878	0.898	0.687	0.863	0.662	1.33	1.17
F fixed	1.44	0.608	0.93	0.735	1.01	1.14	0.818	0.938	0.891
G fixed	0.565	0.809	1.39	1.18	0.528	0.592	0.714	1.14	1.04
H fixed	0.914	1.42	1.1	1.11	1.23	1.42	1.1	1.05	1.07
I fixed	1.41	0.623	0.714	0.921	0.888	1.2	1.14	0.872	0.781
K fixed	0.409	2.3	1.33	1.42	0.752	0.581	0.752	0.734	0.885
L fixed	2	0.608	0.821	0.949	1.57	1.01	1.13	0.834	0.77
M fixed	1.55	0.786	0.968	0.897	1.41	1.31	0.999	0.9	0.884
N fixed	2.36	1.44	1.07	0.959	1.13	0.633	0.649	0.962	0.987
P fixed	0.206	0.741	0.892	1.29	0.348	0.537	0.854	0.807	1.06
Q fixed	1.17	0.78	0.93	0.993	0.866	0.785	0.65	0.818	0.818
R fixed	0.597	2.39	1.33	1.29	1.02	1	1.54	0.795	0.994
V fixed	0.914	0.758	0.874	0.836	0.768	1.07	1	0.934	0.894
W fixed	0.963	0.646	0.969	0.923	1.2	1.31	1.37	1.14	1.07
Y fixed	0.979	0.804	0.903	0.866	1.7	2.04	1.58	1.11	1.08
pThr fixed	0.898	1.36	1.33	0.99	1.03	1.41	1.53	1.4	1.14
pTyr fixed	0.431	0.475	0.716	0.689	1.07	1.01	0.786	0.912	1.09
